Measurements taken from patent publication US20070178531A1 (BIOCHECK, published 2007).
Substitutions are numbered along the chain they refer to.

B1: rabbit monoclonal anti-mouse/human Id3, clone #BCH-4/#16-1 (antibody, V domains shown)
VH: QSVEESGGRLVTPGTPLTLTCTASGFSLSSYYIHWVRQAPGKALEWIGYISDGGTTYYASWAKGRFTISKTSSTTVDLKMTSLTTEDTATYFCARQGFNIWGPGTLVTVSL
VL: AVLTQTPSPVSAAVGGTVTISCQSSQSVYNNNWLSWFQQKSGQPPKLLIYETSKLESGVPSRFKGSGSGTQFTLTIIDVQCDDAATYYCLGGYWTTSDNNIFGGGTEVVVK
notes: Rabbit IgG from a rabbit hybridoma; also called m/h Id3 MoAb 16-1
B2: rabbit monoclonal anti-mouse/human Id3, clone #BCH-4/#17-3 (antibody, V domains shown)
VH: B1 VH with S30N, Y31V, A43G, G54D, T56A, Y57R, S60T, D77N
VL: B1 VL with T19S, Y29W, S41P, I77S, I101V
notes: Rabbit IgG from a rabbit hybridoma; also called m/h Id3 MoAb 17-3; BCH-3/#17-3
B3: rabbit monoclonal anti-mouse/human Id3, clone #BCH-4/#6-1 (antibody, V domains shown)
VH: B1 VH with S30N, Y31V, A43G, G54D, T56A, Y57R, S60T, D77N
VL: B1 VL with T19S, Y29W, S41P, I77S, I101V
notes: Rabbit IgG from a rabbit hybridoma; also called m/h Id3 MoAb 6-1

Experiments:
human Id3 protein = target: T1, human Id3 protein (human, UniProt Q02535 1-119 at identity 1.00)); experiment: SPR (BIACORE 2000), antibody immobilized on CM5, Id3 as analyte, 1:1 Langmuir
T1 chain: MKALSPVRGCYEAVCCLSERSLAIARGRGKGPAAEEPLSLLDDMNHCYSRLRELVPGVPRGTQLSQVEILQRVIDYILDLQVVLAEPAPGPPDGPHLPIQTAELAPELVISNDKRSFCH
Protocol: (§1) Antibodies were immobilized on CM5 sensor chips. All SPR (surface plasmon resonance) assays were carried out in a BIACORE 2000 instrument. A mouse monoclonal antibody was used as reference labeled at the 2nd channel (Fc2) of the chip. Rabbit monoclonal anti-human Id3 (BCH-4/#3-3) or Rabbit monoclonal anti-mouse/human Id3 (BCH-4/#6-1, #16-1 and #17-3) was immobilized on the 4th (Fc4) channel. Final conjugation of antibodies on chip surface was 1878 RU for BCH-4#3-3, BCH-4/#6-1, BCH-4/#16-1, or BCH-3/#17-3. Mouse Id-3 and human Id-3 were applied as mobile analytes. The binding assays were carried out in HBS-P buffer (10 mM HEPES, pH 7.4, containing 150 mM sodium chloride, 0.005% surfactant P-20 detergent and 0.12% glycerol). Kinetics were determined with 8 different analyte concentrations ranging from 3.4 nM to 573 nM. For analyses, 125 μl of analyte were injected (Kinject protocol) at 30 μl/min and the dissociation lasted for 240 seconds at the same flow rate. The surface was regenerated by washing with 50 μl solution of 100 mM glycine and 100 mM of HCl, pH 1.81, at 60 μl/min and the extra cleaning protocol was followed. The kinetic analyses of sensograms were based on the Langmuir (1:1) binding model. Both association rate constant and dissociation rate constants for the interaction of mouse Id-3 and human Id-3 with the immobilized antibodies were determined from the analysis of sensograms using the Biaevaluation software, version 3.0. All binding curves were corrected for background and bulk refractive index contribution by subtraction of the reference flow cells. Models were fitted globally across the data sets. All experiments and analyses were duplicated.

mouse Id3 protein = target: T2, mouse Id3 protein (mouse, UniProt P41133 1-119); experiment: as above
T2 sequence: T1 chain with G31S, A33S, A34T, A105T, N112K
Protocol: as §1

Human Id1: Histidine = target: T3, Human Id1: Histidine (human, UniProt P41134 1-155, limits assumed); experiment: ELISA, Ab 0.025 µg/ml
T3 construct: Fusion protein made in E. coli from vector pGW07; also called h-Id1: his; not shown: His tag
T3 sequence (looked up): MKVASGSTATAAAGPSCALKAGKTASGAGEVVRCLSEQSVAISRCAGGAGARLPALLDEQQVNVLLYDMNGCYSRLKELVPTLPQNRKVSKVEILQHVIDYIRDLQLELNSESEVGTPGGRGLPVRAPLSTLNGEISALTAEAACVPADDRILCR
Protocol: (§2) 1. Dispense 100 μL of antibody diluent, diluted rabbit monoclonal human Id3, and mouse/human Id3 hybridoma supernatants into appropriate wells. […] 2. Incubate at room temperature with mechanical shaking at 750 rpm for 90 minutes. [0165] 3. Remove the incubation mixture by flicking plate content into an appropriate waste container followed by rinsing the wells 5 times with distilled water. [0166] 4. Strike the wells sharply onto absorbent paper or paper towels to remove all residual water droplets. [0167] 5. Dispense 100 μL of 1:50,000 Goat Anti-Rabbit IgG-HRP Conjugate Reagent into each well. Gently mix for 5 seconds. [0168] 6. Incubate at room temperature with mechanical shaking at 750 rpm for 90 minutes. [0169] 7. Repeat procedures 3 and 4. [0170] 8. Dispense 100 μL of TMB Reagent into each well. Gently mix for 5 seconds. [0171] 9. Incubate at room temperature with mechanical shaking at 750 rpm for 20 minutes. […] 10. Add 100 μL of Stop Solution (1N HCl) into each well. [0173] 11. Gently mix for 10 seconds to ensure a complete mixing. [0174] 12. Read optical density at A450 nm.
(§3) Cross-reactivity of rabbit monoclonal anti-mouse/human Id3 (clone #6-1) and commercial rabbit polyclonal antibody (Santa Cruz Biotechnology) were determined according to the procedures of Example 9.

Mouse Id2: Histidine = target: T4, Mouse Id2: Histidine (mouse, UniProt P41136 1-134, limits assumed); experiment: ELISA, Ab 0.025 µg/ml
T4 construct: Fusion protein made in E. coli from vector pGW07; also called m-Id2: His; not shown: His tag
T4 sequence (looked up): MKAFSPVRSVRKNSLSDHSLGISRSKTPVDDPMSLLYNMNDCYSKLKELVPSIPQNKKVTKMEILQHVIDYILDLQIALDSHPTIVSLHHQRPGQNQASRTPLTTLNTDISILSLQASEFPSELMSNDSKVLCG
Protocol: as §2, §3

Human Id2: Histidine = target: T5, Human Id2: Histidine (human, UniProt Q02363 1-134, limits assumed); experiment: ELISA, Ab 0.025 µg/ml
T5 construct: Fusion protein made in E. coli from vector pGW07; also called h-Id2: His; not shown: His tag
T5 sequence (looked up): T4 sequence (looked up) with T60S, V131A
Protocol: as §2, §3

Mouse Id3: Histidine = target: T6, Mouse Id3: Histidine (mouse, UniProt P41133 1-119); experiment: ELISA, Ab 0.025 µg/ml
T6 construct: Fusion protein made in E. coli from vector pGW07; also called m-Id3: His; Mouse Id3 (coated wells); not shown: His tag
T6 sequence: T1 chain with G31S, A33S, A34T, A105T, N112K
Protocol: as §2, §3

Human Id3: Histidine = target: T7, Human Id3: Histidine (human, UniProt Q02535 1-119 at identity 1.00)); experiment: ELISA, Ab 0.025 µg/ml
T7 construct: Fusion protein made in E. coli from vector pGW07; also called h-Id3: His; Human Id3 (coated wells); not shown: His tag
T7 chain: T1 chain
Protocol: as §2, §3

Mouse Id1: Histidine = target: T8, Mouse Id1: Histidine (mouse, UniProt P20067-2 1-148, limits assumed); experiment: ELISA, Ab 0.025 µg/ml
T8 construct: Fusion protein made in E. coli from vector pGW07; also called m-Id1-His; not shown: His tag
T8 sequence (looked up): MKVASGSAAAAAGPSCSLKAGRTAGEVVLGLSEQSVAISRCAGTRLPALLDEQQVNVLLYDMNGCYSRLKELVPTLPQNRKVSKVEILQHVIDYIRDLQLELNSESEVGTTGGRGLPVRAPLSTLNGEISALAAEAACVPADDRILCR
Protocol: as §2, §3

Binder	Ka (human Id3 protein)	Ka (mouse Id3 protein)	A450 (Human Id1: Histidine)	A450 (Mouse Id2: Histidine)	A450 (Human Id2: Histidine)	A450 (Mouse Id3: Histidine)	A450 (Human Id3: Histidine)	A450 (Mouse Id1: Histidine)
B1	1.89e+11 M⁻¹	2.42e+09 M⁻¹	–	–	–	–	–	–
B2	7.35e+10 M⁻¹	3.32e+11 M⁻¹	–	–	–	–	–	–
B3	4.13e+11 M⁻¹	5.26e+08 M⁻¹	0.073 A450	0.076 A450	0.088 A450	1.15 A450	1.01 A450	0.072 A450
